Data from patent US20070111947A1, “Fibrin targeted therapeutics” (priority 2005, published 2007).

Test system: arterial thrombosis (FeCl3 damaged carotid artery)
Assay: Arterial thrombosis model (FeCl3 damaged carotid artery)
Assay type: in vivo, rabbit
Procedure: Rabbits are initially sedated with a subcutaneous injection of Xylazine (5 mg/kg). Approximately 5 min following sedation, the animals are anesthetized with a dose of Ketamine (50 mg/kg) and Acepromazine (2.5 mg/kg) intramuscularly to achieve the appropriate level of anesthesia. Anesthetic depth will be assessed using the pain withdraw reflexes and EKG. Anesthesia is given intravenously every 45-60 min at 5-10 mg/kg to maintain proper anesthetic depth.
Left carotid artery is isolated using a ventral midline approach. A stenosis is initiated on the carotid artery reducing blood flow by 70-80%. 1 cm segments of carotid artery are placed in a plastic tube opened lengthwise, together with a filter paper (diameter 3 mm) soaked in ferric chloride (FeCl3, 40 μL, 40% w/w). After 15-30 min exposure of the artery to FeCl3, the plastic tube with the filter paper is removed and the artery is rinsed with saline. The time to vessel occlusion is monitored using a Doppler flow probe, which is attached to the carotid artery. ^125I fibrinogen (30 μCi/kg) is administered 5 min before initiation of the stenosis. The saline, test or control compounds are given via the jugular vein as an intravenous bolus injection immediately before or at the end of FeCl3 exposure. Blood sample are collected at 1, 3, 5, 12, 20, 30, 45, 60 and 90 min after compound injection via the contra lateral jugular vein. The time that blood flow dropped to zero is recorded as the occlusion time of blood vessel. At the end of experiment, animals are sacrificed with an overdose of pentobarbital (120 mg/kg). Both the clot from the FeCl3 damaged artery, and the damaged artery after clot removal are weighed. Right carotid artery is used as a control. Concentration of test compound and fibrin in the clot are detected by γ-countering.
Pharmacokinetics of compound are analyzed by using the WinNonLin program.

[1] = compared to an equivalent dose of Non-binder control, FIG. 4

SMILES: CCC(C)[C@H](CC(=O)[C@@H](C)Cc1c[nH]cn1)C(=O)N[C@@H](CC(C)C)C(=O)NCc1ccc(CCC(=O)[C@H](CCNC(=O)CC[C@H]2C(=O)[O][Y]345[O]C(=O)CN(CCN2CCN(CC(=O)[O]3)CC(=O)[O]4)CC(=O)[O]5)NC(=O)CC[C@H]2C(=O)[O][Y]345[O]C(=O)CN(CCN2CCN(CC(=O)[O]3)CC(=O)[O]4)CC(=O)[O]5)cc1 (stereo partly shown) [Hybrid Molecule 3]
- higher level bound to clot [1]: 5 fold
- higher level bound to clot plus damaged artery [1]: 2 fold
- increased time to occlusion (compared to an equivalent dose of melagatran alone or the Non-binder, FIG. 2): approximately 4 fold
- decrease in clot weight (compared to an equivalent dose of melagatran or Non-binder control, FIG. 3): approximately 2 fold
